The results in this text go back to patent US20220402985A1.

Where only a bound is given, the exact number is not on record here.

The target in experiment [1] is ErbB3 on rat Schwann cells (rat) (UniProt Q62799). The experiment can be described thus: cell-based or functional assay.
For experiment [2], the target named is ErbB4 on neonatal rat cardiomyocytes (rat) (UniProt Q62956). The experiment can be described thus: cell-based or functional assay.
Chain of ErbB4 on neonatal rat cardiomyocytes (rat) (Q62956 26-1308): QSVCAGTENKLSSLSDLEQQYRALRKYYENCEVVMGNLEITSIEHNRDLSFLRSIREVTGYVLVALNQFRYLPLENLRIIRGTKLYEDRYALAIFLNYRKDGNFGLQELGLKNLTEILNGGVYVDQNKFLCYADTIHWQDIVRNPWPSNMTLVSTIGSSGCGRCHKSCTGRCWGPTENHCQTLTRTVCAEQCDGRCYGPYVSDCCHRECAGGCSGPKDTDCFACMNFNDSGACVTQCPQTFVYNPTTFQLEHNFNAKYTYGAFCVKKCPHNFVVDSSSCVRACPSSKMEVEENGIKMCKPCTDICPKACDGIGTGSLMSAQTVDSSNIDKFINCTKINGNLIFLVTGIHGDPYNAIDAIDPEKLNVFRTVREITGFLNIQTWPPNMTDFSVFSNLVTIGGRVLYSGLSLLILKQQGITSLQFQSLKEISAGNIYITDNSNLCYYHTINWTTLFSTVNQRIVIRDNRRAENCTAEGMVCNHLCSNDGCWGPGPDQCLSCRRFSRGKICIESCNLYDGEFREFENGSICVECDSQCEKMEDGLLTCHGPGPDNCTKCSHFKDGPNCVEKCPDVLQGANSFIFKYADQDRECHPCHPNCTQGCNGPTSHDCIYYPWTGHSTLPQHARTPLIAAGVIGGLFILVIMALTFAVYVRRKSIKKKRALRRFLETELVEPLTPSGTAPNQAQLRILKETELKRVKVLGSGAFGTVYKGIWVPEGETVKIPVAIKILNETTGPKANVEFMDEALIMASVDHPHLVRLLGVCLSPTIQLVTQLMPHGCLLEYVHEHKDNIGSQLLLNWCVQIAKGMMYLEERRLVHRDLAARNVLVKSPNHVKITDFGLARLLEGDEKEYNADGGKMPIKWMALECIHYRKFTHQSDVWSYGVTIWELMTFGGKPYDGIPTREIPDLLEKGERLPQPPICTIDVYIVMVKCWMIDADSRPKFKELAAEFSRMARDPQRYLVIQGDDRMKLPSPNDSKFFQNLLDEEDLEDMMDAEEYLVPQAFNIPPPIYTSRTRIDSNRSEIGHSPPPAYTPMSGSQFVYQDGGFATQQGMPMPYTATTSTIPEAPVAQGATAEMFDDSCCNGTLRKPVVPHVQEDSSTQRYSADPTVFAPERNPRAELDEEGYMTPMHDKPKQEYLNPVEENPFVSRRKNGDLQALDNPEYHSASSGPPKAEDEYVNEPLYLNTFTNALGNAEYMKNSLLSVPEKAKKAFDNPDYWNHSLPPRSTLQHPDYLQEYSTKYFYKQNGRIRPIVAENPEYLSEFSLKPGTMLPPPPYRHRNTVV

Chain of ErbB3 on rat Schwann cells (rat) (Q62799 20-1339): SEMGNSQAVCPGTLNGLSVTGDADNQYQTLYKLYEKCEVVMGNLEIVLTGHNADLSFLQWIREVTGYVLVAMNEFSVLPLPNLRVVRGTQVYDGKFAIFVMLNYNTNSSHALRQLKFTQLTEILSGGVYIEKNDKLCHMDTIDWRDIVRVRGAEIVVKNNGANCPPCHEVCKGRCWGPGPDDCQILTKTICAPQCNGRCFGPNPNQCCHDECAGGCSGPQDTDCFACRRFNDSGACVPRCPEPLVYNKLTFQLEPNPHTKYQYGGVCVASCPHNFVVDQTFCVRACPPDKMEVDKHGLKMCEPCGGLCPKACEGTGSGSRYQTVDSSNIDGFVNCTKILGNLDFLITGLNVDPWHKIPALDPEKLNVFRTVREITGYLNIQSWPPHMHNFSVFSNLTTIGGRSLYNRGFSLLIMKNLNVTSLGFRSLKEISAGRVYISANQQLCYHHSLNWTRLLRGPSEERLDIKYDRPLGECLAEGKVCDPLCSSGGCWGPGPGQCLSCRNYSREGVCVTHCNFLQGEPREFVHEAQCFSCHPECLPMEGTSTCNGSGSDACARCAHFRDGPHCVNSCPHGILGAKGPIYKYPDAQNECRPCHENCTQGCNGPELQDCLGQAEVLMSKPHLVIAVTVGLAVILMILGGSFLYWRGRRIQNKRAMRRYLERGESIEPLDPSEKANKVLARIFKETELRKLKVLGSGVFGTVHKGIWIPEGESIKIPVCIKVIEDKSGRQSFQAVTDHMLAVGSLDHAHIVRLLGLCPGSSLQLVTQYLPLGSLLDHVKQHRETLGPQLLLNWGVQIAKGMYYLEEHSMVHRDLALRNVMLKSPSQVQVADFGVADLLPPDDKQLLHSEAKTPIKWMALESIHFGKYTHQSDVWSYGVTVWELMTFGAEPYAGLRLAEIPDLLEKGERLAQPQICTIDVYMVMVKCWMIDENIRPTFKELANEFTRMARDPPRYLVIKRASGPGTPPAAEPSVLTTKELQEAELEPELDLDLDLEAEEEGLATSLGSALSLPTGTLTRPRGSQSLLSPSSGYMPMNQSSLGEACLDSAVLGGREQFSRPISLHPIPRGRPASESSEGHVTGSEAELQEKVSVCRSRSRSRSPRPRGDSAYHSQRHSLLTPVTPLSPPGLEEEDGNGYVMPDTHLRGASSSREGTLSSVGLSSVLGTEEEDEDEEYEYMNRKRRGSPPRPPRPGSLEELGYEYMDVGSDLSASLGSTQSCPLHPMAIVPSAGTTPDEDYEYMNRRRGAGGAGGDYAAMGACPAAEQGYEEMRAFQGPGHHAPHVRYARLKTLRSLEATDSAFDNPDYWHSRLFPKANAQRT

B1: huNRG1(S177-Q237)(3B8)::GG::huFcSEFL2 (Pb) (Fc fusion)
chain: SHLVKCGERDKSFCVNGGECFMVERSSIPSRYLCKCPNEFTGDRCQDFFLASFYKAEELYQGGDKTHTCPPCPAPELLGGPSVFLFPPKPKDTLMISRTPEVTCVVVDVSHEDPEVKFNWYVDGVEVHNAKTKPCEEQYGSTYRCVSVLTVLHQDWLNGKEYKCKVSNKALPAPIEKTISKAKGQPREPQVYTLPPSREEMTKNQVSLTCLVKGFYPSDIAVEWESNGQPENNYKTTPPVLDSDGSFFLYSKLTVDKSRWQQGNVFSCSVMHEALHNHYTQKSLSLSPGK
B1 had a Schwann cells (SC) (ErbB3) Avg EC50 in experiment [1] of 3000 nM. In experiment [2], the CM % Agonism AVG is less than 50%, the Cardiomyocyte (CM) (ErbB4) Avg EC50 was 1.4 nM and the Selectivity SC/CM came to 2150.

B2: huNRG1(S177-Q237)(3H5)::GG::huFcSEFL2 (Pb) (Fc fusion)
chain: SHLVKCGERHKSFCVNGGECYVVERPSIPSRFLCKCPNEFTGDRCQKDFLASFYKAEELYQGGDKTHTCPPCPAPELLGGPSVFLFPPKPKDTLMISRTPEVTCVVVDVSHEDPEVKFNWYVDGVEVHNAKTKPCEEQYGSTYRCVSVLTVLHQDWLNGKEYKCKVSNKALPAPIEKTISKAKGQPREPQVYTLPPSREEMTKNQVSLTCLVKGFYPSDIAVEWESNGQPENNYKTTPPVLDSDGSFFLYSKLTVDKSRWQQGNVFSCSVMHEALHNHYTQKSLSLSPGK
In turn, B2 yielded a Schwann cells (SC) (ErbB3) Avg EC50 in experiment [1] of more than 10000 nM. In experiment [2], this molecule displayed a Cardiomyocyte (CM) (ErbB4) Avg EC50 of 1.27 nM and a Selectivity SC/CM of more than 7800.

B3: huNRG1(S177-Q237)(2F2)::GG::huFcSEFL2 (Pb) (Fc fusion)
chain: SHLVKCAESEKTFCVNGGECYMIEHPSNPSRFLCKCPNEFTGDRCQNVFMASFYKAEELYQGGDKTHTCPPCPAPELLGGPSVFLFPPKPKDTLMISRTPEVTCVVVDVSHEDPEVKFNWYVDGVEVHNAKTKPCEEQYGSTYRCVSVLTVLHQDWLNGKEYKCKVSNKALPAPIEKTISKAKGQPREPQVYTLPPSREEMTKNQVSLTCLVKGFYPSDIAVEWESNGQPENNYKTTPPVLDSDGSFFLYSKLTVDKSRWQQGNVFSCSVMHEALHNHYTQKSLSLSPGK
As to B3, in experiment [1], the Schwann cells (SC) (ErbB3) Avg EC50 came to 202 nM. Besides, in experiment [2], the Cardiomyocyte (CM) (ErbB4) Avg EC50 came out at 0.244 nM and the Selectivity SC/CM was 826.

B4: huNRG1(S177-Q237)(3G9)::GG::huFcSEFL2 (Pb) (Fc fusion)
chain: SHLVKCGESHKSFCVNGGECFMVEDLSNPSRFLCKCPNEFTGDRCQKDFMASFYKAEELYQGGDKTHTCPPCPAPELLGGPSVFLFPPKPKDTLMISRTPEVTCVVVDVSHEDPEVKFNWYVDGVEVHNAKTKPCEEQYGSTYRCVSVLTVLHQDWLNGKEYKCKVSNKALPAPIEKTISKAKGQPREPQVYTLPPSREEMTKNQVSLTCLVKGFYPSDIAVEWESNGQPENNYKTTPPVLDSDGSFFLYSKLTVDKSRWQQGNVFSCSVMHEALHNHYTQKSLSLSPGK
Regarding B4, the Schwann cells (SC) (ErbB3) Avg EC50 in experiment [1] was more than 10000 nM. In addition, in experiment [2], the Cardiomyocyte (CM) (ErbB4) Avg EC50 came to 0.581 nM and the Selectivity SC/CM was more than 10000.

B5: huNRG1(S177-Q237)(3G3)::GG::huFcSEFL2 (Pb) (Fc fusion)
chain: SHLVKCGEREKTFCVNGGECFMIEHLSIPSRFLCKCPNEFTGDRCQEDFMASFYKAEELYQGGDKTHTCPPCPAPELLGGPSVFLFPPKPKDTLMISRTPEVTCVVVDVSHEDPEVKFNWYVDGVEVHNAKTKPCEEQYGSTYRCVSVLTVLHQDWLNGKEYKCKVSNKALPAPIEKTISKAKGQPREPQVYTLPPSREEMTKNQVSLTCLVKGFYPSDIAVEWESNGQPENNYKTTPPVLDSDGSFFLYSKLTVDKSRWQQGNVFSCSVMHEALHNHYTQKSLSLSPGK
Consider B5, for which the Schwann cells (SC) (ErbB3) Avg EC50 in experiment [1] was more than 10000 nM. In experiment [2], the CM % Agonism AVG worked out at 70%, the Cardiomyocyte (CM) (ErbB4) Avg EC50 came out at 1.84 nM and the Selectivity SC/CM was more than 5400.

B6: huNRG1(S177-Q237)(3A7)::GG::huFcSEFL2 (Pb) (Fc fusion)
chain: SHLVKCAEKEKSFCVNGGECFVIEGSSIPSRFLCKCPNEFTGDRCQKVVMASFYKAEELYQGGDKTHTCPPCPAPELLGGPSVFLFPPKPKDTLMISRTPEVTCVVVDVSHEDPEVKFNWYVDGVEVHNAKTKPCEEQYGSTYRCVSVLTVLHQDWLNGKEYKCKVSNKALPAPIEKTISKAKGQPREPQVYTLPPSREEMTKNQVSLTCLVKGFYPSDIAVEWESNGQPENNYKTTPPVLDSDGSFFLYSKLTVDKSRWQQGNVFSCSVMHEALHNHYTQKSLSLSPGK
As for B6, the Schwann cells (SC) (ErbB3) Avg EC50 in experiment [1] amounted to 46.5 nM. In addition, in experiment [2], the CM % Agonism AVG is less than 50%, the Cardiomyocyte (CM) (ErbB4) Avg EC50 came out at 0.366 nM and the Selectivity SC/CM amounted to 127.

B7: huNRG1(S177-Q237)(3E9)::GG::huFcSEFL2 (Pb) (Fc fusion)
chain: SHLVKCAENHKTFCVNGGECFVIEGSSNPSRYLCKCPNEFTGDRCQDVFLASFYKAEELYQGGDKTHTCPPCPAPELLGGPSVFLFPPKPKDTLMISRTPEVTCVVVDVSHEDPEVKFNWYVDGVEVHNAKTKPCEEQYGSTYRCVSVLTVLHQDWLNGKEYKCKVSNKALPAPIEKTISKAKGQPREPQVYTLPPSREEMTKNQVSLTCLVKGFYPSDIAVEWESNGQPENNYKTTPPVLDSDGSFFLYSKLTVDKSRWQQGNVFSCSVMHEALHNHYTQKSLSLSPGK
B7 came in with a Schwann cells (SC) (ErbB3) Avg EC50 in experiment [1] of more than 3000 nM. Moreover, in experiment [2], the CM % Agonism AVG came out at 70%, the Cardiomyocyte (CM) (ErbB4) Avg EC50 came to 2.68 nM and the Selectivity SC/CM was more than 8500.

B8: huNRG1(S177-Q237)(3E6)::GG::huFcSEFL2 (Pb) (Fc fusion)
chain: SHLVKCAEKHKSFCVNGGECYVIEGSSIPSRFLCKCPNEFTGDRCQKDFMASFYKAEELYQGGDKTHTCPPCPAPELLGGPSVFLFPPKPKDTLMISRTPEVTCVVVDVSHEDPEVKFNWYVDGVEVHNAKTKPCEEQYGSTYRCVSVLTVLHQDWLNGKEYKCKVSNKALPAPIEKTISKAKGQPREPQVYTLPPSREEMTKNQVSLTCLVKGFYPSDIAVEWESNGQPENNYKTTPPVLDSDGSFFLYSKLTVDKSRWQQGNVFSCSVMHEALHNHYTQKSLSLSPGK
B8 had a Schwann cells (SC) (ErbB3) Avg EC50 in experiment [1] of more than 10000 nM. In addition, in experiment [2], the Cardiomyocyte (CM) (ErbB4) Avg EC50 stood at 0.35 nM and the Selectivity SC/CM was more than 10000.

B9: huNRG1(S177-Q237)(3D6)::GG::huFcSEFL2 (Pb) (Fc fusion)
chain: SHLVKCGESDKSFCVNGGECFVIEGSSIPSRFLCKCPNEFTGDRCQDFFMASFYKAEELYQGGDKTHTCPPCPAPELLGGPSVFLFPPKPKDTLMISRTPEVTCVVVDVSHEDPEVKFNWYVDGVEVHNAKTKPCEEQYGSTYRCVSVLTVLHQDWLNGKEYKCKVSNKALPAPIEKTISKAKGQPREPQVYTLPPSREEMTKNQVSLTCLVKGFYPSDIAVEWESNGQPENNYKTTPPVLDSDGSFFLYSKLTVDKSRWQQGNVFSCSVMHEALHNHYTQKSLSLSPGK
B9: the Schwann cells (SC) (ErbB3) Avg EC50 in experiment [1] was more than 10000 nM. Besides, in experiment [2], the CM % Agonism AVG is less than 50%, the Cardiomyocyte (CM) (ErbB4) Avg EC50 was 2.6 nM and the Selectivity SC/CM is more than 3800.

B10: huNRG1(S177-Q237)(2G4)::GG::huFcSEFL2 (Pb) (Fc fusion)
chain: SHLVKCAENEKTFCVNGGECFVVEGLSIPSRYLCKCPNEFTGDRCQDVFMASFYKAEELYQGGDKTHTCPPCPAPELLGGPSVFLFPPKPKDTLMISRTPEVTCVVVDVSHEDPEVKFNWYVDGVEVHNAKTKPCEEQYGSTYRCVSVLTVLHQDWLNGKEYKCKVSNKALPAPIEKTISKAKGQPREPQVYTLPPSREEMTKNQVSLTCLVKGFYPSDIAVEWESNGQPENNYKTTPPVLDSDGSFFLYSKLTVDKSRWQQGNVFSCSVMHEALHNHYTQKSLSLSPGK
B10 yielded a Schwann cells (SC) (ErbB3) Avg EC50 in experiment [1] of 1000 nM. In experiment [2], this molecule had a CM % Agonism AVG of less than 50%, a Cardiomyocyte (CM) (ErbB4) Avg EC50 of 2.42 nM and a Selectivity SC/CM of 414.

B11: huNRG1(S177-Q237)(2H7)::GG::huFcSEFL2 (Pb) (Fc fusion)
chain: SHLVKCGEKEKSFCVNGGECYVVEDLSIPSRFLCKCPNEFTGDRCQKVVMASFYKAEELYQGGDKTHTCPPCPAPELLGGPSVFLFPPKPKDTLMISRTPEVTCVVVDVSHEDPEVKFNWYVDGVEVHNAKTKPCEEQYGSTYRCVSVLTVLHQDWLNGKEYKCKVSNKALPAPIEKTISKAKGQPREPQVYTLPPSREEMTKNQVSLTCLVKGFYPSDIAVEWESNGQPENNYKTTPPVLDSDGSFFLYSKLTVDKSRWQQGNVFSCSVMHEALHNHYTQKSLSLSPGK
Regarding B11, the Schwann cells (SC) (ErbB3) Avg EC50 in experiment [1] amounted to 110 nM. In experiment [2], the CM % Agonism AVG was less than 50%, the Cardiomyocyte (CM) (ErbB4) Avg EC50 came to 0.3 nM and the Selectivity SC/CM amounted to 368.

B12: huNRG1(S177-Q237)(3F2)::GG::huFcSEFL2 (Pb) (Fc fusion)
chain: SHLVKCGESHKSFCVNGGECFMIEGPSNPSRYLCKCPNEFTGDRCQDDFMASFYKAEELYQGGDKTHTCPPCPAPELLGGPSVFLFPPKPKDTLMISRTPEVTCVVVDVSHEDPEVKFNWYVDGVEVHNAKTKPCEEQYGSTYRCVSVLTVLHQDWLNGKEYKCKVSNKALPAPIEKTISKAKGQPREPQVYTLPPSREEMTKNQVSLTCLVKGFYPSDIAVEWESNGQPENNYKTTPPVLDSDGSFFLYSKLTVDKSRWQQGNVFSCSVMHEALHNHYTQKSLSLSPGK
In experiment [1], B12 yielded a Schwann cells (SC) (ErbB3) Avg EC50 of more than 10000 nM. In experiment [2], this molecule returned a CM % Agonism AVG of 70%, a Cardiomyocyte (CM) (ErbB4) Avg EC50 of 0.738 nM and a Selectivity SC/CM of more than 10000.

B13: huNRG1(S177-Q237)(2G3)::GG::huFcSEFL2 (Pb) (Fc fusion)
chain: SHLVKCGERQKSFCVNGGECYMVEDLSIPSRYLCKCPNEFTGDRCQKVFMASFYKAEELYQGGDKTHTCPPCPAPELLGGPSVFLFPPKPKDTLMISRTPEVTCVVVDVSHEDPEVKFNWYVDGVEVHNAKTKPCEEQYGSTYRCVSVLTVLHQDWLNGKEYKCKVSNKALPAPIEKTISKAKGQPREPQVYTLPPSREEMTKNQVSLTCLVKGFYPSDIAVEWESNGQPENNYKTTPPVLDSDGSFFLYSKLTVDKSRWQQGNVFSCSVMHEALHNHYTQKSLSLSPGK
As to B13, in experiment [1], the Schwann cells (SC) (ErbB3) Avg EC50 came out at 60.8 nM. Moreover, in experiment [2], the Cardiomyocyte (CM) (ErbB4) Avg EC50 stood at 0.208 nM and the Selectivity SC/CM turned out to be 292.

B14: huNRG1(S177-Q237)(3D8)::GG::huFcSEFL2 (Pb) (Fc fusion)
chain: SHLVKCGEKDKTFCVNGGECFMVEDLSIPSRFLCKCPNEFTGDRCQDFFMASFYKAEELYQGGDKTHTCPPCPAPELLGGPSVFLFPPKPKDTLMISRTPEVTCVVVDVSHEDPEVKFNWYVDGVEVHNAKTKPCEEQYGSTYRCVSVLTVLHQDWLNGKEYKCKVSNKALPAPIEKTISKAKGQPREPQVYTLPPSREEMTKNQVSLTCLVKGFYPSDIAVEWESNGQPENNYKTTPPVLDSDGSFFLYSKLTVDKSRWQQGNVFSCSVMHEALHNHYTQKSLSLSPGK
Turning to B14, in experiment [1], the Schwann cells (SC) (ErbB3) Avg EC50 is more than 3000 nM. In experiment [2], this molecule showed a CM % Agonism AVG of less than 50%, a Cardiomyocyte (CM) (ErbB4) Avg EC50 of 0.51 nM and a Selectivity SC/CM of more than 5800.
